Key:
Assay type in all cases: biochemical
[1] = target: T1, cloned Pfu DNA polymerase (Pyrococcus furiosus, UniProt P61875); assay: 6.2 kb primer-template PCR enhancing assay; conditions: protein concentrations comparable to or greater than gel-purified PEFs
T1 sequence (P61875 1-775): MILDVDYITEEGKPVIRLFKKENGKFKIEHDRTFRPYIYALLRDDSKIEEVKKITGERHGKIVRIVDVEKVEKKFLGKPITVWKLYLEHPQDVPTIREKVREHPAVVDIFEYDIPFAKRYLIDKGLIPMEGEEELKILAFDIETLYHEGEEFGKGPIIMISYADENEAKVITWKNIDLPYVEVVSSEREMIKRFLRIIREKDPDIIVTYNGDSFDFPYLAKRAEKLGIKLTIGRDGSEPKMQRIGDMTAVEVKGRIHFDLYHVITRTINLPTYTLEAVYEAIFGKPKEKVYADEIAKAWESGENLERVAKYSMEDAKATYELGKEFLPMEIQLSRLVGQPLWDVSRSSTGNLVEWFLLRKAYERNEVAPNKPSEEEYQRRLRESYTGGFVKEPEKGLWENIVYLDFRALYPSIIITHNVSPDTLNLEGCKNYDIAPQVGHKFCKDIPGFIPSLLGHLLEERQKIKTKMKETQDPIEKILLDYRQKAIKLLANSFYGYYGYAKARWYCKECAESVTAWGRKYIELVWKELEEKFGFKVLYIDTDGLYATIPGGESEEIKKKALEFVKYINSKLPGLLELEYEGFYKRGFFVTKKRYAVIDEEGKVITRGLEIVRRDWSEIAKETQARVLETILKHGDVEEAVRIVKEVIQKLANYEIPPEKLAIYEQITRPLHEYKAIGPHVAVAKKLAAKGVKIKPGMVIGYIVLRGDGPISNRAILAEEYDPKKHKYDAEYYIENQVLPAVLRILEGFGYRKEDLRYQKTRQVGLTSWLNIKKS
Experimental: One embodiment of an assay used to screen for PEFs, in this case from Pyrococcus furiosus, involved amplifying a 6.2 kb target from transgenic mouse DNA (6.2 kb primer-template assay). A master PCR cocktail was prepared consisting of: 200 μM each dNTP, 2 μg/ml primer F432-21 (5′-CTA-TTG-AGT-ACG-AAC-GCC-ATC) (SEQ ID NO.: 62), 2 μg/ml primer R6656-20 (GTC-ACG-CTT-GCT-CCA-CTC-CG) (SEQ ID NO: 63), 2.5 μg/ml λAA742 DNA (transgenic mouse DNA having 40 copies of a lambda phage DNA shuttle vector), 1× cloned Pfu DNA polymerase PCR buffer (10 mM KCl, 10 mM (NH4)2SO4, 20 mM Tris-HCl (pH 8.8), 2 mM MgSO4, 0.1% (v/v) Triton X-100, and 100 μg/ml BSA), and 25 U/ml cloned Pfu DNA polymerase. Samples were diluted in 1× cloned Pfu DNA polymerase PCR buffer, and 1 μl of each diluted sample was added to 24 μl of the PCR cocktail. PCR amplifications were conducted on the RoboCycler 96 Temperature Cycler (Stratagene), using the following conditions: 96° C. for 45 s (1 cycle)/96° C. for 45 s; 60° C. for 45 s; 72° C. for 14 min. (35 cycles)/72° C. for 10 min. (1 cycle). PCR products (10 μl/lane) are run out on 1% agarose gels and PCR product bands visualized by ethidium bromide staining. […] When PCR enhancement is due to the presence of PEFs, rather than contaminating endogenous DNA polymerase activity, amplifications performed in the absence of […] yield no PCR product. Moreover, PCR amplifications performed in the absence of exogenous DNA template should yield no PCR product when the PEF sample lacks contaminating target DNA.

[2] = PCR cycling of dCTP in the presence of PEF or Pfu DNA polymerase, HPLC; conditions: 10 mM dCTP, 1.25 U Pfu/μl
[3] = system: gapped-duplex calf thymus DNA; assay: DNA polymerase activity, gapped-duplex calf thymus DNA assay; conditions: 30 minutes at 72° C.
Experimental: Initially and as a control to confirm the activity of the DNA polymerase used, gapped-duplex calf thymus DNA (Pharmacia) assays were performed. The polymerase cocktail contained 50 mM Tris-HCl, pH 8.0, 5 mM MgCl2, 1 mM DTT, 50 μg/m BSA, 4% glycerol, 200 μM each dNTP, [^3H]TTP (0.5 mCi·μmole final concentration), and 250 μg/ml of activated calf thymus DNA (Pharmacia). Samples containing Pfu DNA polymerase or P. furiosus PEF were serially diluted in Pfu DNA polymerase storage buffer (50 mM Tris-HCl, pH 8.2, 0.1% NP-40, 0.1% Tween-20, 0.1 mM EDTA, 1 mM DTT, 50% glycerol) and then 1 μl of each dilution was added to 10 μl aliquots of polymerase cocktail. Polymerization reactions were conducted in triplicate for 30 minutes at 72° C. The extension reactions were quenched on ice, and then 5 μl aliquots were spotted immediately onto DE81 filters (Whatman). Unincorporated [^3H]TTP was removed by 6 washes with 2×SCC (0.3M NaCl, 30 mM sodium citrate, pH 7.0), followed by one wash with 100% ethanol. Incorporated radioactivity was measured by scintillation counting. The assay was calibrated by counting a known amount of [^3H]TTP on DE-81 filters, omitting the wash steps. One unit of polymerase activity is defined as the amount of enzyme which catalyzes the incorporation of 10 nmoles of total dNTP into polymeric form (binds to DE-81 paper) in 30 minutes at 72° C. […]

B1: Pfu DNA polymerase: DNA polymerase of Pyrococcus furiosus (protein, UniProt P61875 1-775, looked up)
DNA polymerase: MILDVDYITEEGKPVIRLFKKENGKFKIEHDRTFRPYIYALLRDDSKIEEVKKITGERHGKIVRIVDVEKVEKKFLGKPITVWKLYLEHPQDVPTIREKVREHPAVVDIFEYDIPFAKRYLIDKGLIPMEGEEELKILAFDIETLYHEGEEFGKGPIIMISYADENEAKVITWKNIDLPYVEVVSSEREMIKRFLRIIREKDPDIIVTYNGDSFDFPYLAKRAEKLGIKLTIGRDGSEPKMQRIGDMTAVEVKGRIHFDLYHVITRTINLPTYTLEAVYEAIFGKPKEKVYADEIAKAWESGENLERVAKYSMEDAKATYELGKEFLPMEIQLSRLVGQPLWDVSRSSTGNLVEWFLLRKAYERNEVAPNKPSEEEYQRRLRESYTGGFVKEPEKGLWENIVYLDFRALYPSIIITHNVSPDTLNLEGCKNYDIAPQVGHKFCKDIPGFIPSLLGHLLEERQKIKTKMKETQDPIEKILLDYRQKAIKLLANSFYGYYGYAKARWYCKECAESVTAWGRKYIELVWKELEEKFGFKVLYIDTDGLYATIPGGESEEIKKKALEFVKYINSKLPGLLELEYEGFYKRGFFVTKKRYAVIDEEGKVITRGLEIVRRDWSEIAKETQARVLETILKHGDVEEAVRIVKEVIQKLANYEIPPEKLAIYEQITRPLHEYKAIGPHVAVAKKLAAKGVKIKPGMVIGYIVLRGDGPISNRAILAEEYDPKKHKYDAEYYIENQVLPAVLRILEGFGYRKEDLRYQKTRQVGLTSWLNIKKS
[1]
  PCR enhancing activity (in words): lacks PCR enhancing activity
[2]
  change in dCDP, dCMP or dUTP produced when dCTP cycled with Pfu DNA polymerase: no difference
[3]
  specific activity (DNA polymerase): 2-4×10^4 u/mg

From patent US7943358B2, “Polymerase enhancing factor (PEF) extracts, PEF protein complexes, isolated PEF protein, and methods for purifying and identifying” (Agilent Technologies, Inc., priority 1997, dated 2011)
